Read-outs that look alike come from different tables or passages of the source.
T1: mouse IGFBP7 displayed on cells (HEK293T or CHO-K1) (mouse, UniProt Q61581 26-281)
T1 construct: whole, on cells;domain: CD80 transmembrane domain; also called mIGFBP7; mIGFBP7-HEK cells; not shown: linker; CD80 transmembrane domain
T1 sequence (looked up): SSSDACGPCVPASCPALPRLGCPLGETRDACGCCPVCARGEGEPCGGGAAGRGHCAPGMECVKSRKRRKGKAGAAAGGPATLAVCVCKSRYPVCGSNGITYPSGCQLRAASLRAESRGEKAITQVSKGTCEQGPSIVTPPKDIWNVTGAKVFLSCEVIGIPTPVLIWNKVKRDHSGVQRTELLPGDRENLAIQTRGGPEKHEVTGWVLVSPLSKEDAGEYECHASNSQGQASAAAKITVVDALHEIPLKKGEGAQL

T2: human IGFBP7 recombinant protein (UniProt Q16270 27-282, biotinylated with EZ-LINK NHS-PEG4 biotin in the BLI assays (sites not given))
T2 chain: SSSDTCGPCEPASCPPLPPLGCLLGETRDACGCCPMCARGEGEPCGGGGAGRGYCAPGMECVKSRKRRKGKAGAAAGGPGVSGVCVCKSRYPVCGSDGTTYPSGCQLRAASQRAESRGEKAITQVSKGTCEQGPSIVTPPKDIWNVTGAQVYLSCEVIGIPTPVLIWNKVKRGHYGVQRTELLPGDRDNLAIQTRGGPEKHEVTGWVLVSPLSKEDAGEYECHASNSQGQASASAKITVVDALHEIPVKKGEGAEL

T3: cynomolgus IGFBP7 recombinant protein (cynomolgus)
T3 chain: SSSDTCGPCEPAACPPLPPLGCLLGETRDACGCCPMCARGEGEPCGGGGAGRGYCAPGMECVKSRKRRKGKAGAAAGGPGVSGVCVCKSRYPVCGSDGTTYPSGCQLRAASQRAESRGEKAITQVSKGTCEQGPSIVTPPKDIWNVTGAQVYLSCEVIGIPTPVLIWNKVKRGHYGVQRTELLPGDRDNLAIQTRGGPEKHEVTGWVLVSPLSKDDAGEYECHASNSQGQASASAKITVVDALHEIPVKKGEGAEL

T4: mouse IGFBP7 recombinant protein (mouse, UniProt Q61581 26-281, limits assumed, biotinylated with EZ-LINK NHS-PEG4 biotin in the BLI assays (sites not given))
T4 construct: Soluble protein in ELISA and BLI; also called mIGFBP7
T4 sequence (looked up): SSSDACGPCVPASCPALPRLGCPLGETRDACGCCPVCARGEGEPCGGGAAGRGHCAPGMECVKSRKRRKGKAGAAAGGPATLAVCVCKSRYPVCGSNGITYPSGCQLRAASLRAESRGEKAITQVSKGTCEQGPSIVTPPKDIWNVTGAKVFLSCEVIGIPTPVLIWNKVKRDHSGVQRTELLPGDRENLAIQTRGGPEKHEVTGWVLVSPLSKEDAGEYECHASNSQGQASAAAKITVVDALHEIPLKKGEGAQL

T5: mouse IGFBP7 recombinant protein (mouse, UniProt Q61581 26-281, biotinylated with EZ-LINK NHS-PEG4 biotin in the BLI assays (sites not given))
T5 chain: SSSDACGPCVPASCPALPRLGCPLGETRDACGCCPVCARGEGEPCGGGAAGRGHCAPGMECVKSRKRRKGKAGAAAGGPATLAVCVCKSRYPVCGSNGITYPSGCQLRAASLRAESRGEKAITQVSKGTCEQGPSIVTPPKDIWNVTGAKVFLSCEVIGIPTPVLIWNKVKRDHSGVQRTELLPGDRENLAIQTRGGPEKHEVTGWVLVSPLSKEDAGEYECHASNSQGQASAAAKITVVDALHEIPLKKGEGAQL

T6: human IGFBP7 displayed on HEK293T cells (human, UniProt Q16270 27-282)
T6 construct: domain: CD80 transmembrane domain; signal peptide stated as residues 1-26; also called hIGFBP7; hIGFBP7-HEK cells; not shown: linker; CD80 transmembrane domain
T6 sequence: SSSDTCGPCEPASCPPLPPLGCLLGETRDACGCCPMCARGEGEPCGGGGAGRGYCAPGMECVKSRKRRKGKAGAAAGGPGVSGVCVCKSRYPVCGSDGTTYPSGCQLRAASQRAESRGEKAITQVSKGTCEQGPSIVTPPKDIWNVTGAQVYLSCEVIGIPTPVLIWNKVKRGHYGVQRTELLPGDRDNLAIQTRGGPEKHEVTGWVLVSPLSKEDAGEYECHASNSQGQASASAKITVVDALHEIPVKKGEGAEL

T7: human IGFBP7 recombinant protein (human, UniProt Q16270 27-282, biotinylated with EZ-LINK NHS-PEG4 biotin in the BLI assays (sites not given))
T7 construct: Soluble protein used for ELISA coating and, biotinylated, on streptavidin biosensors (Octet); also called hIGFBP7; biotinylated IGFBP7 protein
T7 sequence: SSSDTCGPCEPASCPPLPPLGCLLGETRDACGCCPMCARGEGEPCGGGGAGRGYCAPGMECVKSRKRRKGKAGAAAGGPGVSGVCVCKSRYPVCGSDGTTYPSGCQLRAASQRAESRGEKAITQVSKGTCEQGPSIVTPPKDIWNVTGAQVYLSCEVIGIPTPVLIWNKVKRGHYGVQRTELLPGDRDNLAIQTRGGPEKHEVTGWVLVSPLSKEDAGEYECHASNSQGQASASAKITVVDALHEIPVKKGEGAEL


Assays:
[1] = target: T1, mouse IGFBP7 displayed on cells …; experiment: flow cytometry on mIGFBP7-HEK cells (FIG. 13)
Method: (§1) After washing with FACS buffer, the cells were incubated with Alexa Fluor 488 conjugated anti-mouse IgG antibody (Jackson ImmunoResearch) for 30 minutes in 4° C. After washing with FACS buffer twice, the samples were acquired in NovoCyte Flow Cytometer and analyzed by NovoExpress software.

[2] = target: T2, human IGFBP7 recombinant protein; experiment: BLI
[3] = target: T2, human IGFBP7 recombinant protein; experiment: BLI
[4] = target: T3, cynomolgus IGFBP7 recombinant protein; experiment: BLI
[5] = target: T4, mouse IGFBP7 recombinant protein; experiment: BLI (Octet QKe), biotinylated IGFBP7 on streptavidin biosensors (FIG. 10)
Method: (§2) The binding affinity of anti-IGFBP7 nanobody Fc-fusion constructs (e.g., VHH-Fc-fusion constructs) were determined with bio-layer interferometry (BLI) using Octet QKe (Fortebio). Human, mouse, and cynomolgus IGFBP7 were biotinylated using EZ-LINK NHS-PEG4 biotin (Thermo Fisher Scientific). Streptavidin biosensors (ForteBio) were used to load biotinylated IGFBP7 protein (300 seconds in 5 μg/mL). Baseline was stabilized for 60 seconds in 1× kinetics buffer (ForteBio) before anti-IGFBP7 Fc-fucion proteins (serial dilution) were allowed to associate for 300 seconds with captured hIGFBP7 or mIGFBP7. Then the sensors were dissociated in 1× kinetics buffer for 600 seconds. Data analysis was performed on ForteBio Data Analysis HT 11.1 software.

[6] = target: T5, mouse IGFBP7 recombinant protein; experiment: BLI
[7] = target: T2, human IGFBP7 recombinant protein; experiment: BLI
[8] = target: T5, mouse IGFBP7 recombinant protein; experiment: BLI
[9] = target: T6, human IGFBP7 displayed on HEK293T cells; experiment: flow cytometry on hIGFBP7-HEK cells (FIG. 13)
Method: as §1

[10] = target: T5, mouse IGFBP7 recombinant protein; experiment: BLI
[11] = target: T7, human IGFBP7 recombinant protein; experiment: BLI (Octet QKe), biotinylated IGFBP7 on streptavidin biosensors (FIG. 9)
Method: as §2

binding result [1] | Kd [2] [nM] | Kd [3] [nM] | Kd [4] [nM] | binding result [5] | Kd [6] [nM] | Kd [7] [nM] | Kd [8] [nM] | binding result [9] | Kd [10] [nM] | binding result [11] | Binder
binds | 2.72 | 3.7 | 2.41 | binds | 25.8 | 2.72 | 25.8 | binds | 60.1 | binds | A1-mIgG2a nanobody Fc-fusion (Fc fusion, VHH fused with mIgG2a Fc fragment, expressed in Expi293 cells, Protein G purified; also called monoclonal A1-mIgG2a; monospecific A1-mIgG2a; not shown: mouse IgG2a Fc fragment (mIgG2a Fc)) VQLQESGGGLVQAGGSLRLSCAASGSLFAIDKWGWYRQVAGNERELVAWRYSPVSINYGDSVKGRFTVSGDSSRKRVYLQMNSLKPDDTAVYRCAAVISGAWYWGQGTQVTVSS
binds | 0.193 | – | 0.195 | binds | 1.74 | 0.193 | 1.74 | binds | – | binds | bispecific anti-IGFBP7 nanobody Fc-fusion construct A1-mIgG2a-D4 (bispecific antibody, V domains shown, also called A1-mIgG2a-D4-2; not shown: mouse IgG2a Fc fragment (mIgG2a Fc)) V domain 1: VQLQESGGGLVQAGGSLRLSCAASGSLFAIDKWGWYRQVAGNERELVAWRYSPVSINYGDSVKGRFTVSGDSSRKRVYLQMNSLKPDDTAVYRCAAVISGAWYWGQGTQVTVSS V domain 2: VQLQESGGGLVQTGGSLRLSCAASGRSFTFSSYAMGWFRHAPGKEREFLTAITWSGDYTYYTDSVKGRSTISRDNAKNTVYLQLNNLKPEDTAVYYCAAKFSQVSAFFATVSEYEYWGQGTQVTVSS

Source: US20240150466A1 (DYNAMICURE BIOTECHNOLOGY, published 2024)
